According to PMC9408895:
Substitutions are numbered along the chain they refer to. Numbers in names are those of the source.

T1: senescence-suppressed protein phosphatase SSPP (His-SSPP)
T1 chain: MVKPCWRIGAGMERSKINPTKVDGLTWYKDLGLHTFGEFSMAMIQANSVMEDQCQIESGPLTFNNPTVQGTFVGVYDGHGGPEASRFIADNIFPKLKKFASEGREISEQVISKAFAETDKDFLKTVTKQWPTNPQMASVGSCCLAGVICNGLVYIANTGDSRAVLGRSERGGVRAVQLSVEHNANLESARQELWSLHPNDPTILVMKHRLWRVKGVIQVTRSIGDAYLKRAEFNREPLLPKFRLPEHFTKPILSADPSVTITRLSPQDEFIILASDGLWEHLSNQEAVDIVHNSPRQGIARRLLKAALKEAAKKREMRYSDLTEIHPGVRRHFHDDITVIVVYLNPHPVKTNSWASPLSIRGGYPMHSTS

B1: GST-AtSARK-CD, cytoplasmic domain of Arabidopsis thaliana senescence-associated receptor-like kinase AtSARK, wild type, Q8VYT3 Y413F (protein)
chain: CWYRKKQRRLLILNLNDKQEEGLQGLGNLRSFTFRELHVYTDGFSSKNILGAGGFGNVYRGKLGDGTMVAVKRLKDINGTSGDSQFRMELEMISLAVHKNLLRLIGYCATSGERLLVYPYMPNGSVASKLKSKPALDWNMRKRIAIGAARGLLFLHEQCDPKIIHRDVKAANILLDECFEAVVGDFGLAKLLNHADSHVTTAVRGTVGHIAPEYLSTGQSSEKTDVFGFGILLLELITGLRALEFGKTVSQKGAMLEWVRKLHEEMKVEELLDRELGTNYDKIEVGEMLQVALLCTQYLPAHRPKMSEVVLMLEGDGLAERWAASHNHSHFYHANISFKTISSLSTTSVSRLDAHCNDPTYQMFGSSAFDDDDDHQPLDSFAMELSGPR
B2: GST-AtSARK-CD, cytoplasmic domain of Arabidopsis thaliana senescence-associated receptor-like kinase AtSARK, wild type, Q8VYT3 T326A (protein)
chain: B1 chain with T67A, F154Y
B3: GST-AtSARK-CD, cytoplasmic domain of Arabidopsis thaliana senescence-associated receptor-like kinase AtSARK, wild type, Q8VYT3 S384A (protein)
chain: B1 chain with S125A, F154Y
B4: GST-AtSARK-CD, cytoplasmic domain of Arabidopsis thaliana senescence-associated receptor-like kinase AtSARK, wild type, Q8VYT3 Y473F (protein)
chain: B1 chain with F154Y, Y214F
B5: GST-AtSARK-CD, cytoplasmic domain of Arabidopsis thaliana senescence-associated receptor-like kinase AtSARK, wild type, Q8VYT3 Y413E (protein)
chain: B1 chain with F154E
B6: GST-AtSARK-CD, cytoplasmic domain of Arabidopsis thaliana senescence-associated receptor-like kinase AtSARK, wild type, Q8VYT3 T465D (protein)
chain: B1 chain with F154Y, T206D
B7: GST-AtSARK-CD, cytoplasmic domain of Arabidopsis thaliana senescence-associated receptor-like kinase AtSARK, wild type, Q8VYT3 Y473E (protein)
chain: B1 chain with F154Y, Y214E
B8: GST-AtSARK-CD, cytoplasmic domain of Arabidopsis thaliana senescence-associated receptor-like kinase AtSARK, wild type, Q8VYT3 S304D (protein)
chain: B1 chain with S45D, F154Y
B9: GST-AtSARK-CD, cytoplasmic domain of Arabidopsis thaliana senescence-associated receptor-like kinase AtSARK, wild type, Q8VYT3 T326D (protein)
chain: B1 chain with T67D, F154Y
B10: GST-AtSARK-CD, cytoplasmic domain of Arabidopsis thaliana senescence-associated receptor-like kinase AtSARK, wild type, Q8VYT3 T465A (protein)
chain: B1 chain with F154Y, T206A
B11: GST-AtSARK-CD, cytoplasmic domain of Arabidopsis thaliana senescence-associated receptor-like kinase AtSARK, wild type, Q8VYT3 S384D (protein)
chain: B1 chain with S125D, F154Y
B12: GST-AtSARK-CD, cytoplasmic domain of Arabidopsis thaliana senescence-associated receptor-like kinase AtSARK, wild type, Q8VYT3 S304A (protein)
chain: B1 chain with S45A, F154Y

Biological target: T1, senescence-suppressed protein …
Assay: in vitro pull-down (His-SSPP-bound Ni-NTA beads, anti-GST blot)
Conditions: chain shown with the change; 20% pull-down, 10% input loaded; parent: 1.00

Row | ratio to parent | Binder
1 | 1.16 | B1
2 | 0.97 | B2
3 | 0.23 | B3
4 | 0.96 | B4
5 | 0.12 | B5
6 | 0.88 | B6
7 | 0.98 | B7
8 | 0.95 | B8
9 | 0.84 | B9
10 | 0.9 | B10
11 | 1.04 | B11
12 | 1.08 | B12
